Measured values: PMC12126490, “The HP1 box of KAP1 organizes HP1α for silencing of endogenous retroviral elements in embryonic stem cells” (Nature Communications, 2025)

Experiments:
[1] = system: endogenous HP1α in KAP1^−/− ESCs; test: immunofluorescence of endogenous HP1α; type: cell-based; details: KAP1^−/− mouse ESCs stably expressing the GFP-labeled construct, anti-HP1α antibody, DAPI
Description: The constructs coding for GFP-KAP1RF and the P486A/V488A/L490A mutant were transfected into 1 ×10^5 KAP1^−/− mouse ESCs using Lipofectamine 3000 (Invitrogen). Forty-eight hours post-transfection, cells were trypsinized and plated at a colony density in selection medium containing 10 μg/ml blasticidin (Thermo Fisher Sci) for one week. The selection process was repeated once to establish stable GFP-KAP1 expressing cell lines.
For immunostaining, mouse ESCs were cultured on Geltrex-coated coverslips (Life Technologies) in DMEM supplemented with 16% fetal bovine serum, 0.1 mM β-mercaptoethanol (Invitrogen), 2 mM L-glutamine, 1× MEM non-essential amino acids, 100 U/ml penicillin, 100 µg/ml streptomycin (PAA), 2i (1 μM PD032591 and 3 μM CHIR99021 (Axon Medchem, Netherlands) and 1000 U/ml recombinant LIF (Millipore). Coverslips were rinsed twice with PBS (pH 7.4; 140 mM NaCl, 2.7 mM KCl, 6.5 mM Na2HPO4, 1.5 mM KH2PO4), followed by fixation with 3.7% formaldehyde (Sigma) for 10 min. Fixed cells were washed three times (10 min each) with PBST (PBS + 0.01% Tween-20), permeabilized in 0.5% Triton X-100 for 10 min, and washed twice (10 min each) with PBST. Primary and secondary antibodies were prepared in blocking solution (PBST + 3% BSA). […]

[2] = system: DNA-induced HP1α phase separated droplets; test: in vitro droplet assay; details: 50 µM HP1α, 0.18 µM 601 DNA
Source text: For droplet assays, cDNA of full-length HP1α was cloned into a pET28 expression vector. His-tag fusion HP1α was expressed in E. coli and purified as in ref. [51]. cDNA of the KAP1FR fragment (aa 114–834) was cloned into a pCAG-GFP expression vector, and the P486A/V488A/L490A mutant of GFP-KAP1FR was generated using overlap extension PCR. Purification of GFP-KAP1FR proteins was described in ref. [52].
For the droplet assay, Widom 601 DNA was amplified by PCR using a plasmid coding for 12× 601 DNA with primers as follows: 601 DNA_F: […] and 601 DNA_R: TGCACAGGATGTATATATCTGACAC. HP1α was concentrated to ~10 µg/µl using Amicon concentrators. The buffer changes for both HP1α and GFP-KAP1FR solutions were carried out using Zeba™ Spin Desalting Columns with a buffer containing 20 mM HEPES at pH 7.2, 75 mM KCl, and 1 mM DTT. For visualization of His-tagged-HP1α within the droplets, 500 ng of protein was labeled with the 647 N fluorescent label using the Monolith NT™ Protein Labeling Kit RED-NHS from Nano Temper. To form HP1α droplets, 50 µM of HP1α was incubated with 0.18 µM of 601 DNA for 3 min and dropped into ibidi chamber (µ-Slide 18 Well). Subsequently, 50 ng of the labeled HP1α and 100 ng of GFP-KAP1FR (wild type or mutant) were added into HP1α/DNA droplets. The images of the droplets were collected using a Nikon TiE microscope equipped with a Yokogawa CSU-W1 spinning-disk confocal unit (50 μm pinhole size), an Andor Borealis illumination unit, Andor ALC600 laser beam combiner (405 nm/488 nm/561 nm/640 nm), Andor IXON 888 Ultra EMCCD camera, and a Nikon 100×/1.45 NA oil immersion objective. The size and intensity of HP1α phase-separated droplets were analyzed using ImageJ.

B1: GFP-KAP1FR-PVLmut: P486A/V488A/L490A mutant of GFP-KAP1FR impaired in HP1α binding (protein)
chain: VVDCPVCKQQCFSKDIVENYFMRDSGSKAATDAQDANQCCTSCEDNAPATSYCVECSEPLCETCVEAHQRVKYTKDHTVRSTGPAKSRDGERTVYCNVHKHEPLVLFCESCDTLTCRDCQLNAHKDHQYQFLEDAVRNQRKLLASLVKRLGDKHATLQKSTKEVRSSIRQVSDVQKRVQVDVKMAILQIMKELNKRGRVLVNDAQKVTEGQQERLERQHWTMTKIQKHQEHILRFASWALESDNNTALLLSKKLIYFQLHRALKMIVDPVEPHGEMKFQWDLNAWTKSAEAFGKIVAERPGTNSTGPAPMAPPRAPGPLSKQGSGSSQPMEVQEGYGFGSGDDPYSSAEPHVSGVKRSRSGEGEVSGLMRKVARASAERLDLDLTADSQPPVFKVFPGSTTEDYNLIVIERGAAAAATGQPGTAPAGTPGAPPLAGMAIVKEEETEAAIGAPPTATEGPETKPVLMALAEGPGAEGPRLASPSGSTSSGLEVVAPEGTSAPGGGPGTLDDSATICRVCQKPGDLVMCNQCEFCFHLDCHLPALQDVPGEEWSCSLCHVLPDLKEEDGSLSLDGADSTGVVAKLSPANQRKCERVLLALFCHEPCRPLHQLATDSTFSLDQPGGTLDLTLIRARLQEKLSPPYSSPQEFAQDVGRMFKQFNKLTEDKADVQSIIGLQRFFETRMNEAFGDTKFSAVLVEPPPMSLPGAGLSSQELSGGPGDG
modifications: left off: GFP, end not stated, kept
[1]
  distribution of endogenous HP1α (puncta): more dispersed and formed smaller and fewer puncta
[2]; 20 mM HEPES pH 7.2, 75 mM KCl, 1 mM DTT, 100 ng GFP-KAP1FR, 50 ng labeled HP1α
  sequestration of 647N labeled HP1α into droplets: unable to sequester 647N labeled HP1α into the condensed phase
[2]; confocal microscopy
  localization of GFP-KAP1FR in droplets: concentrated at the periphery of the droplets
